The values that follow come from patent EP4534564A1 (ImmuneOnco Biopharmaceuticals (Shanghai) Inc., dated 2025).

For assay [1], the target named is recombinant human VEGF-165 protein (Cat#11066-HNAH, Sino Biologicals) (human, UniProt P15692-4 27-191). The assay is described as follows: ELISA, VEGF-165 coated 50 ng/well. A general note: In an ELISA, binding on a coated surface is turned into a signal by an enzyme label.
The target of assay [2] is PD-L1 on CHO-PD-L1 cells (Cat#YMAK-C006, ImmuneOnco) (UniProt Q9NZQ7 19-290, limits assumed). The assay can be described thus: cell-based or functional assay.
PD-L1 on CHO-PD-L1 cells (Cat#YMAK-C006, ImmuneOnco), sequence (Q9NZQ7 19-290 limits assumed): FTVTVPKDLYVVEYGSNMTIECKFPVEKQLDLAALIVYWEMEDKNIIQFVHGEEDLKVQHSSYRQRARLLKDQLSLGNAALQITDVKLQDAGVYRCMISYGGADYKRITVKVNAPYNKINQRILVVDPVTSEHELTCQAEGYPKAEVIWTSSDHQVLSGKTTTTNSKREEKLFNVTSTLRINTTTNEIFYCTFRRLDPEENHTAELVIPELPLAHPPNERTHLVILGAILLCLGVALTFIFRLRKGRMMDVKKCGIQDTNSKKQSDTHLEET
Assay [3] deals with T1, monkey PD-L1 (Cat#90251-C08H, sino Biological) (monkey, UniProt G7PSE7 19-238).
T1 construct: also called PD-L1-his
T1 sequence (G7PSE7 entry or part of it C08H C08H limits assumed, form in doubt): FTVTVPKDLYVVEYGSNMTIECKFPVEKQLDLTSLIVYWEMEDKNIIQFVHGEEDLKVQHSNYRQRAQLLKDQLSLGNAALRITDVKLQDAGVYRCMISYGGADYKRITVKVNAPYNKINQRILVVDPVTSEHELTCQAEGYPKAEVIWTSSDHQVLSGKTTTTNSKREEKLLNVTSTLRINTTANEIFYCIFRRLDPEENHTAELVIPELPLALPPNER
The assay can be described thus: BLI (Gator), human Fc probe, Kinetics Assay mode, 25 C.

recombinant human VEGF-165 protein (Cat#11066-HNAH, Sino Biologicals), sequence (P15692 other isoform, or with tags, fused parts or gaps limits assumed): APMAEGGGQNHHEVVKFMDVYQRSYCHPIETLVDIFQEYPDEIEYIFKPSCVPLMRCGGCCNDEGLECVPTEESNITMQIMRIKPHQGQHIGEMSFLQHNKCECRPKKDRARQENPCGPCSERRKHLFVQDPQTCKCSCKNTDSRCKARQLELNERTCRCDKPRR

B1: IMM2519 (bispecific antibody, human IgG1, kappa)
heavy: QVQLVQSGAEVKKPGASVKVSCKASGYTFTSNWMHWVRQAPGQGLEWMGMIHPNSGSSNYNEKFKSRVTMTRDTSTSTVYMELSSLRSEDTAVYYCARSYYGSSPYYFDYWGQGTLVTVSSASTKGPSVFPLAPSSKSTSGGTAALGCLVKDYFPEPVTVSWNSGALTSGVHTFPAVLQSSGLYSLSSVVTVPSSSLGTQTYICNVNHKPSNTKVDKRVEPKSCDKTHTCPPCPAPELLGGPSVFLFPPKPKDTLMISRTPEVTCVVVDVSHEDPEVKFNWYVDGVEVHNAKTKPREEQYNATYRVVSVLTVLHQDWLNGKEYKCKVSNKALPAPIAATISKAKGQPREPQVYTLPPSREEMTKNQVSLTCLVKGFYPSDIAVEWESNGQPENNYKTTPPVLDSDGSFFLYSKLTVDKSRWQQGNVFSCSVMHEALHNHYTQKSLSLSPGK
light: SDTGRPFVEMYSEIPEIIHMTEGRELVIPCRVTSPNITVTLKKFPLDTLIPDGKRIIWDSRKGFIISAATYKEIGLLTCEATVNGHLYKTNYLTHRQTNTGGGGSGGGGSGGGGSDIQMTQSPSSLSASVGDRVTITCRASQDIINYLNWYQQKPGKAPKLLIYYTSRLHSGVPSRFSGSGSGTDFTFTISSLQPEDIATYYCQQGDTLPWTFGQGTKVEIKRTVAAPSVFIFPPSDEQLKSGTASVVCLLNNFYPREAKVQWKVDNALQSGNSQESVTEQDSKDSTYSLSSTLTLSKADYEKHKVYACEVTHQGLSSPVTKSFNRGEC
notes: Anti-PD-L1 IgG IMM2515H with VEGFR1D2 linked by a (G4S)3 linker to the N-terminus of each light chain; also called recombinant fusion protein
Take B1: in assay [1], the binding result is recorded as “binds”.

B2: IMM2518 (bispecific antibody, human IgG1, kappa)
heavy: SDTGRPFVEMYSEIPEIIHMTEGRELVIPCRVTSPNITVTLKKFPLDTLIPDGKRIIWDSRKGFIISAATYKEIGLLTCEATVNGHLYKTNYLTHRQTNTGGGGSGGGGSGGGGSQVQLVQSGAEVKKPGASVKVSCKASGYTFTSNWMHWVRQAPGQGLEWMGMIHPNSGSSNYNEKFKSRVTMTRDTSTSTVYMELSSLRSEDTAVYYCARSYYGSSPYYFDYWGQGTLVTVSSASTKGPSVFPLAPSSKSTSGGTAALGCLVKDYFPEPVTVSWNSGALTSGVHTFPAVLQSSGLYSLSSVVTVPSSSLGTQTYICNVNHKPSNTKVDKRVEPKSCDKTHTCPPCPAPELLGGPSVFLFPPKPKDTLMISRTPEVTCVVVDVSHEDPEVKFNWYVDGVEVHNAKTKPREEQYNATYRVVSVLTVLHQDWLNGKEYKCKVSNKALPAPIAATISKAKGQPREPQVYTLPPSREEMTKNQVSLTCLVKGFYPSDIAVEWESNGQPENNYKTTPPVLDSDGSFFLYSKLTVDKSRWQQGNVFSCSVMHEALHNHYTQKSLSLSPGK
light: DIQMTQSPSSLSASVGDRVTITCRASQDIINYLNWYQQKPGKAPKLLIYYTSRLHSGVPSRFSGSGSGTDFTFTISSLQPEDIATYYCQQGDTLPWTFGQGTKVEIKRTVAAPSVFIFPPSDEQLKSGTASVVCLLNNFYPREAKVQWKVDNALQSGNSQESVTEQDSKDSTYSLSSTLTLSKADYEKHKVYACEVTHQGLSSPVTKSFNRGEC
notes: Anti-PD-L1 IgG IMM2515H with VEGFR1D2 linked by a (G4S)3 linker to the N-terminus of each heavy chain; also called recombinant fusion protein
In the case of B2, the “ADCC (%lysis) against Raji-PD-L1 cells by NK92MI cells expressing FcgRIIIa (158V)” value in assay [2] turned out to be 6 fold lower than IMM2515H. Further, in assay [3], the Kd came to 0.441 nM, the koff was 0.000218 s⁻¹ and the kon is 494000 M⁻¹ s⁻¹.

Usually Kd stands for the concentration at which binding is half-saturated. What is called koff is the first-order rate constant of dissociation. As usually defined, the kon is a measure of how fast the partners come together.
